The values that follow come from US20130130288A1 (published 2013).

In test [1] the target is T1, amyloid β-derived diffusible ligands (ADDLs), oligomers of Aβ1-42.
T1 construct: number of copies not defined; also called Aβ oligomers; Aβ oligomer
Briefly: three-pronged Aβ ELISA (M90/1 polyclonal capture); ratio of binding to ADDLs over fibrillar Aβ.

The target in test [2] is T1, amyloid β-derived diffusible ligands …. Briefly: BIACORE (SPR); affinity for Aβ1-40 over affinity for ADDLs.
Test [3] has the same target. The experiment in a line: competitive ELISA.
Test [4] has the same target. Briefly: … bead-based immunoassay; signal at 0.2 pM ADDLs greater than at 1000 pM Aβ1-40.
Test [5] concerns the target T2, Aβ1-40 monomer.
T2 construct: also called Aβ40 monomer; monomer Aβ
Briefly: ELISA on coated antigen, chemiluminescence; antibody at 0 timepoint.

The target in test [6] is T2, Aβ1-40 monomer. Briefly: ELISA on coated antigen, chemiluminescence; antibody stored 1 month at 25°.
Test [7] concerns the target T2, Aβ1-40 monomer. The experiment in a line: one-sided ELISA, plate coated with 100 pmol/well Aβ1-40, chemiluminescence.
In test [8] the target is T1, amyloid β-derived diffusible ligands …. Briefly: one-sided ELISA, plate coated with 50 pmol/well Aβ oligomers, chemiluminescence.
The target is the same in test [9]. Briefly: sandwich ELISA, 19.3 capture and 82E1 detection, luminescence (ENVISION).
Test [10] shares this target. The experiment in a line: ERENNA sandwich immunoassay, 19.3 capture, labelled 82E1 detection.
Test [11] has the same target. The experiment in a line: ELISA, IgG2 antibodies.
In test [12] the target is T2, Aβ1-40 monomer. The experiment in a line: ELISA on coated antigen, chemiluminescence; antibody stored 1 month at 4°.
The target of test [13] is T1, amyloid β-derived diffusible ligands …. The experiment in a line: three-pronged Aβ ELISA (M90/1 polyclonal capture); ratio of binding to ADDLs over monomeric Aβ.
Test [14] has as its target T2, Aβ1-40 monomer. The experiment in a line: KINEXA, equilibrium constant in solution.
The target in test [15] is T1, amyloid β-derived diffusible ligands …. The experiment in a line: KINEXA, equilibrium constant in solution.
The target is the same in test [16]. Briefly: competitive ELISA, ratio of the two competition EC50 values.
Test [17] deals with T2, Aβ1-40 monomer. Briefly: BIACORE (SPR).
The target of test [18] is T1, amyloid β-derived diffusible ligands …. Briefly: BIACORE (SPR).
The target in test [19] is T2, Aβ1-40 monomer. Briefly: ELISA on coated antigen, chemiluminescence; antibody stored 1 month at 40°.
The target in test [20] is T1, amyloid β-derived diffusible ligands …. Briefly: KINEXA; constant for Aβ1-40 over constant for ADDLs.
Test [21] shares this target. The experiment in a line: one-sided ELISA on coated Aβ oligomers or Aβ1-40.

B1: anti-ADDL antibody 19.3 (antibody, V domains shown)
VH: EVQLVESGGGLVQPGGSLRLSCAASGFTFSSFGMHWVRQAPGKGLEWVAYISRGSSTIYYADTVKGRFTISRDNAKNSLYLQMNSLRAEDTAVYYCARGITTALDYWGQGTLVTVSS
VL: DVVMTQSPLSLPVTPGEPASISCRSSQSIVHSNGNTYLEWYLQKPGQSPQLLIYKASNRFSGVPDRFSGSGSGTDFTLKISRVEAEDVGVYYCFQGSRLGPSFGQGTKLEIKR
For the molecule B1, the “ADDL:Fibrillar” value in [1] was 2 ratio. Also, the “Ratio (Aβ monomer/ADDL)” value in test [2] is ~31 ratio; in [20], ~6.2 ratio. Further, the “fold higher concentration of Aβ1-40 needed to displace 50% of 19.3 from Aβ oligomers than of Aβ oligomers to displace 19.3 from Aβ1-40” value in test [3] is ~600 fold. Further, the “ADDL versus monomeric Aβ selectivity” value in test [4] was ~5000 fold. Moreover, the 50% effective concentration (EC50) with Aβ1-40 monomer [5] was 10.1 nM; with Aβ1-40 monomer [6], 22.1 nM; in the test with Aβ1-40 monomer [7], ~4.3 nM; in test [8], ~1.6 nM; in [11] it was 0.8 nM; with Aβ1-40 monomer [12], 16.3 nM. A half-maximal effect with Aβ1-40 monomer [19] (EC50) was put at 88.8 nM. Moreover, the “fold selectivity for Aβ oligomer signal as compared to Aβ40 monomers” value in test [9] was ~1000 fold. Also, the “fold selectivity of the assay for Aβ oligomers over Aβ 40 monomer” value in test [10] turned out to be 5000 fold. In addition, in test [13], the “ADDL:Monomer” value stood at 2.5 ratio. Besides, the dissociation constant Kd in the test with Aβ1-40 monomer [14] is 16.7 nM; in [15], 2.7 nM; with Aβ1-40 monomer [17], 150 nM; in [18], 4.8 nM. Besides, the “affinity for Aβ1-42 oligomers compared to Aβ1-40 monomers” value in test [16] was ~630 ratio. The “fold greater potency for Aβ oligomers as compared to Aβ40 monomer” value in test [21] was ~3.7 fold.

B2: anti-ADDL antibody 17.1 (antibody, V domains shown)
VH: EVQLVESGGGLVQPGGSLRLSCAASGFTFSSFGMHWVRQAPGKGLEWVAYISRGSSTIYYADTVKGRFTISRDNAKNSLYLQMNSLRAEDTAVYYCARGITTALDYWGQGTLVTVSS
VL: DVVMTQSPLSLPVTPGEPASISCRSSQSIVHSNGNTYLEWYLQKPGQSPQLLIYKASNRFSGVPDRFSGSGSGTDFTLKISRVEAEDVGVYYCFQGSRVPASFGQGTKLEIKR
For the molecule B2, the “ADDL:Fibrillar” value in test [1] is 2.1 ratio. Further, the “ADDL:Monomer” value in test [13] turned out to be 3.2 ratio.

B3: anti-ADDL antibody 13.1 (antibody, V domains shown)
VH: EVQLVESGGGLVQPGGSLRLSCAASGFTFSSFGMHWVRQAPGKGLEWVAYISRGSSTIYYADTVKGRFTISRDNAKNSLYLQMNSLRAEDTAVYYCARGITTALDYWGQGTLVTVSS
VL: DVVMTQSPLSLPVTPGEPASISCRSSQSIVHSNGNTYLEWYLQKPGQSPQLLIYKASNRFSGVPDRFSGSGSGTDFTLKISRVEAEDVGVYYCFQGSKAHPSFGQGTKLEIKR
As to B3, the “ADDL:Fibrillar” value in [1] came to 2 ratio. Besides, in [13], the “ADDL:Monomer” value worked out at 2.4 ratio.

B4: anti-ADDL antibody 11.4 (antibody, V domains shown)
VH: EVQLVESGGGLVQPGGSLRLSCAASGFTFSSFGMHWVRQAPGKGLEWVAYISRGSSTIYYADTVKGRFTISRDNAKNSLYLQMNSLRAEDTAVYYCARGITTALDYWGQGTLVTVSS
VL: DVVMTQSPLSLPVTPGEPASISCRSSQSIVHSNGNTYLEWYLQKPGQSPQLLIYKASNRFSGVPDRFSGSGSGTDFTLKISRVEAEDVGVYYCFQGSRVPVRFGQGTKLEIKR
Consider B4, for which, in test [1], the “ADDL:Fibrillar” value was found to be 2.4 ratio. In addition, the “ADDL:Monomer” value in test [13] came out at 2.4 ratio.

B5: 19.3 N33T (antibody, V domains shown)
VH: EVQLVESGGGLVQPGGSLRLSCAASGFTFSSFGMHWVRQAPGKGLEWVAYISRGSSTIYYADTVKGRFTISRDNAKNSLYLQMNSLRAEDTAVYYCARGITTALDYWGQGTLVTVSS
VL: DVVMTQSPLSLPVTPGEPASISCRSSQSIVHSTGNTYLEWYLQKPGQSPQLLIYKASNRFSGVPDRFSGSGSGTDFTLKISRVEAEDVGVYYCFQGSRLGPSFGQGTKLEIL
With B5, the values for the EC50 with Aβ1-40 monomer [5], with Aβ1-40 monomer [12] and with Aβ1-40 monomer [19] were 332 nM, 307 nM and 96.3 nM, respectively.

B6: 19.3 N33S (antibody, V domains shown)
VH: EVQLVESGGGLVQPGGSLRLSCAASGFTFSSFGMHWVRQAPGKGLEWVAYISRGSSTIYYADTVKGRFTISRDNAKNSLYLQMNSLRAEDTAVYYCARGITTALDYWGQGTLVTVSS
VL: DVVMTQSPLSLPVTPGEPASISCRSSQSIVHSSGNTYLEWYLQKPGQSPQLLIYKASNRFSGVPDRFSGSGSGTDFTLKISRVEAEDVGVYYCFQGSRLGPSFGQGTKLEIL
Turning to B6, the EC50 with Aβ1-40 monomer [5] came to 55.1 nM; in the test with Aβ1-40 monomer [6], 24.3 nM; with Aβ1-40 monomer [12] it was 59.1 nM; with Aβ1-40 monomer [19] it was 29.9 nM.

B7: anti-ADDL antibody 14.2 (antibody, V domains shown)
VH: EVQLVESGGGLVQPGGSLRLSCAASGFTFSSFGMHWVRQAPGKGLEWVAYISRGSSTIYYADTVKGRFTISRDNAKNSLYLQMNSLRAEDTAVYYCARGITTALDYWGQGTLVTVSS
VL: DVVMTQSPLSLPVTPGEPASISCRSSQSIVHSNGNTYLEWYLQKPGQSPQLLIYKASNRFSGVPDRFSGSGSGTDFTLKISRVEAEDVGVYYCFQGSRVPPGFGQGTKLEIKR
On to B7, for which the “ADDL:Monomer” value in test [13] was determined as 4.2 ratio.
